Assay results published in PMC2695410 (2009).

B1: Aquaporin 6 N-terminal peptide (Nter) N-terminal calmodulin binding site, 21-aa peptide (peptide)
chain: RAYLLVGGLWTAISKALFAEF
modifications: dansyl-calmodulin, Ca2+
B2: Aquaporin 6 N-terminal peptide (h6 Nter) N-terminal calmodulin binding site, 21-aa peptide (peptide)
chain: WASMLACRLWKAISRALFAEF
modifications: dansyl-calmodulin, Ca2+

Target: Calmodulin (Bos taurus, UniProt P62157)
Experiment: dansyl-calmodulin fluorescence titration

| Binder | Kd [µM] |
| --- | --- |
| B1 | 0.79 |
| B2 | 1.78 |
